# From the supplement of paper PMC10065799, “High-throughput profiling of sequence recognition by tyrosine kinases and SH2 domains using bacterial peptide display” (eLife, 2023)
# Target: Hck (UniProt P08631)
# Experiment: phosphorylation enrichment, bacterial display (enrichment ratio); higher = better substrate or ligand; peptides without Tyr show the background
# 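Further: 11-residue human phosphosite peptides and single-mutation variants displayed on the E. coli surface, counted by deep sequencing, each peptide's frequency after selection divided by its frequency in the unselected input library; frequency after pTyr selection over input frequency; kinase dosed for 20-30% of maximal phosphorylation in three min.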
# Sequence of Hck (P08631 whole entry, looked up): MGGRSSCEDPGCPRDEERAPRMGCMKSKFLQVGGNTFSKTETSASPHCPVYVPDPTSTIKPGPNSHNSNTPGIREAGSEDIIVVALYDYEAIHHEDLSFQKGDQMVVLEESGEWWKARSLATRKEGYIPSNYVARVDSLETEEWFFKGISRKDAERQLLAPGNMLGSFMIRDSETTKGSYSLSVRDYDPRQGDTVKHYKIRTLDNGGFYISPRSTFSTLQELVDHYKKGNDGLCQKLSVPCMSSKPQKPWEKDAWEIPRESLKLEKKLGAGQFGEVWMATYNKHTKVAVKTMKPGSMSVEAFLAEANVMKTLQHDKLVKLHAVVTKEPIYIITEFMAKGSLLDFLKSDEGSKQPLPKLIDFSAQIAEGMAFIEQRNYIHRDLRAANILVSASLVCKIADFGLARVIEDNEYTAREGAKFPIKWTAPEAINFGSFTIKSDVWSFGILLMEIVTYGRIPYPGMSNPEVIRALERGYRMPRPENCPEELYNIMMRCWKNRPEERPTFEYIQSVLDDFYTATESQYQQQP
row,Sequence,phosphorylation enrichment
1,KQQEIYQEVTQ [CD209_Y239_L242V],5.41
2,YEPDAYYDLDQ [ELP5_Y302_D303Y],0.852
3,CPEASYNRSPI [PTAR1_Y42_R41S],0.521
4,FKTPIYPFLLP [PLD2_Y578_T577I_YF],0.523
5,EEQKKNYNAMK [SCN5A_Y1494_Y1494N],0.351
6,RYVVLYDAELT [ERCC4_Y581],0.66
7,FSLIHYARIVD [MYH7_Y582_G584R],0.506
8,MVSLFYGTALF [OR10C1_Y251],1.45
9,TRDVNYGWIIH [MT-CYB_Y75_R80H],0.523
10,FMMMRYSQNVR [SDAD1_Y656],0.475
11,REEKNDKLKET [BCLAF1_Y459_Y459D],0.788
12,FFPANYVAPMT [GRAP2_Y324_L319F],0.469
13,SDGHEYIYVDR [PDGFRB_Y579_P584R],1.12
14,LLREWYMIFSR [HUWE1_Y4066_I4069F],0.915
15,KHMADYPDCKF [SOX11_Y113_Y116C_YF],0.475
16,FLQEIHNSNNQ [FGG_Y140_Y140H_YF],0.538
17,WASGIYYVPKG [APBB1IP_Y340_R335W],10.1

row,Sequence,phosphorylation enrichment
1,NDFGNYNNQSS [HNRNPA1_Y318],0.417
2,FMIISYVLIIR [OR1D2_Y218_V214M],0.553
3,ISKILYHIIKG [CDH17_Y489_S484I],0.508
4,GLIPAYHRVIV [NMNAT1_Y64_M69V],0.481
5,SSGSRYQPLAS [NCAPD2_Y1325_T1321S],0.442
6,DRVALYIAREG [AACS_Y117],0.569
7,FTGSTYRVGDT [FN1_Y106_N104S_YF],0.404
8,EALDFYGEVRT [PTEN_Y155],0.918
9,RDWSHYFKIIE [KRT18_Y129],0.57
10,WQQQSYLDSRI [CTNNB1_Y30_G34R],0.476
11,HSDDDYDDPEL [CLNK_Y69],0.846
12,DFNPNYCFAGK [ALK_Y1096_YF],0.444
13,FKGIVYAVSSD [DCX_Y70],0.391
14,HKANEYFPVVL [ADAMTS18_Y764_YF],0.533
15,QGLRLYRAHLA [BTK_Y617_P619A],0.497
16,MYRVQYNSSVD [LRFN1_Y458_Q455R],0.435

# Target: Jak2 (UniProt O60674)
# Sequence (O60674 whole entry, looked up): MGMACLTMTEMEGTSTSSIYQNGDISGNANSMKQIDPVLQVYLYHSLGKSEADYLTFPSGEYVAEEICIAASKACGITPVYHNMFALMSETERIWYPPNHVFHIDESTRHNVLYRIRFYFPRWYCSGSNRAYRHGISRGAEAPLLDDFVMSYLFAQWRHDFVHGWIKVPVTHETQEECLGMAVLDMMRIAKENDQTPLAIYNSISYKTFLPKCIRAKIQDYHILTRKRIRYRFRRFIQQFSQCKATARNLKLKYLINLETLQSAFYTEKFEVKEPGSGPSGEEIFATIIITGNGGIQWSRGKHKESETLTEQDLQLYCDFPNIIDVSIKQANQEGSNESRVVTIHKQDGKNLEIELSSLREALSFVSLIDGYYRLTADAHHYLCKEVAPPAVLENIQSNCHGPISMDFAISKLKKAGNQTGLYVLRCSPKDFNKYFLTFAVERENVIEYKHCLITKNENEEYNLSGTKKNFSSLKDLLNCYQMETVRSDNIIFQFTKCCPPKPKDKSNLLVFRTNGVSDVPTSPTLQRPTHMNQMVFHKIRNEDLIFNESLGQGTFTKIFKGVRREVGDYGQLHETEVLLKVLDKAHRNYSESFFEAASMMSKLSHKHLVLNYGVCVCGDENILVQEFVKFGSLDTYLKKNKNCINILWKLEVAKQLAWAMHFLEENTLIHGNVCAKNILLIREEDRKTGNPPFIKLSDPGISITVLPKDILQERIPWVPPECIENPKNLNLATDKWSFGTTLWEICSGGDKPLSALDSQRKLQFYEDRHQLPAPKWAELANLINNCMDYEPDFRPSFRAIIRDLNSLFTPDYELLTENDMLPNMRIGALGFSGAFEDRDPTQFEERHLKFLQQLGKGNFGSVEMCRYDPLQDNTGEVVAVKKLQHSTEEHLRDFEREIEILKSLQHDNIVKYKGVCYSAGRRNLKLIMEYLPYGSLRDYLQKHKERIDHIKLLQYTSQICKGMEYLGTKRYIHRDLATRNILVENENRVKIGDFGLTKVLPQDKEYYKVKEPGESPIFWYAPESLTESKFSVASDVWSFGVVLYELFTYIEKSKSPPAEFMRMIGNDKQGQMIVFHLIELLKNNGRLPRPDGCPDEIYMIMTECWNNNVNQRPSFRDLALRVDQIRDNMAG
# Experiment: as above
row,Sequence,phosphorylation enrichment
1,KQQEIYQEVTQ [CD209_Y239_L242V],0.765
2,YEPDAYYDLDQ [ELP5_Y302_D303Y],1.61
3,CPEASYNRSPI [PTAR1_Y42_R41S],0.882
4,FKTPIYPFLLP [PLD2_Y578_T577I_YF],0.91
5,EEQKKNYNAMK [SCN5A_Y1494_Y1494N],0.55
6,RYVVLYDAELT [ERCC4_Y581],1.24
7,FSLIHYARIVD [MYH7_Y582_G584R],1.01
8,MVSLFYGTALF [OR10C1_Y251],1.2
9,TRDVNYGWIIH [MT-CYB_Y75_R80H],1.15
10,FMMMRYSQNVR [SDAD1_Y656],0.939
11,REEKNDKLKET [BCLAF1_Y459_Y459D],0.685
12,FFPANYVAPMT [GRAP2_Y324_L319F],0.865
13,SDGHEYIYVDR [PDGFRB_Y579_P584R],1.01
14,LLREWYMIFSR [HUWE1_Y4066_I4069F],2.17
15,KHMADYPDCKF [SOX11_Y113_Y116C_YF],0.879
16,FLQEIHNSNNQ [FGG_Y140_Y140H_YF],0.63
17,WASGIYYVPKG [APBB1IP_Y340_R335W],8.67

row,Sequence,phosphorylation enrichment
1,NDFGNYNNQSS [HNRNPA1_Y318],0.49
2,FMIISYVLIIR [OR1D2_Y218_V214M],0.383
3,ISKILYHIIKG [CDH17_Y489_S484I],0.783
4,GLIPAYHRVIV [NMNAT1_Y64_M69V],1.15
5,SSGSRYQPLAS [NCAPD2_Y1325_T1321S],0.531
6,DRVALYIAREG [AACS_Y117],1.02
7,FTGSTYRVGDT [FN1_Y106_N104S_YF],0.783
8,EALDFYGEVRT [PTEN_Y155],1.51
9,RDWSHYFKIIE [KRT18_Y129],1.35
10,WQQQSYLDSRI [CTNNB1_Y30_G34R],0.623
11,HSDDDYDDPEL [CLNK_Y69],1.48
12,DFNPNYCFAGK [ALK_Y1096_YF],1.21
13,FKGIVYAVSSD [DCX_Y70],0.802
14,HKANEYFPVVL [ADAMTS18_Y764_YF],1.83
15,QGLRLYRAHLA [BTK_Y617_P619A],0.878
16,MYRVQYNSSVD [LRFN1_Y458_Q455R],0.68

# Target: MERTK (UniProt Q12866)
# Sequence (Q12866 whole entry, looked up): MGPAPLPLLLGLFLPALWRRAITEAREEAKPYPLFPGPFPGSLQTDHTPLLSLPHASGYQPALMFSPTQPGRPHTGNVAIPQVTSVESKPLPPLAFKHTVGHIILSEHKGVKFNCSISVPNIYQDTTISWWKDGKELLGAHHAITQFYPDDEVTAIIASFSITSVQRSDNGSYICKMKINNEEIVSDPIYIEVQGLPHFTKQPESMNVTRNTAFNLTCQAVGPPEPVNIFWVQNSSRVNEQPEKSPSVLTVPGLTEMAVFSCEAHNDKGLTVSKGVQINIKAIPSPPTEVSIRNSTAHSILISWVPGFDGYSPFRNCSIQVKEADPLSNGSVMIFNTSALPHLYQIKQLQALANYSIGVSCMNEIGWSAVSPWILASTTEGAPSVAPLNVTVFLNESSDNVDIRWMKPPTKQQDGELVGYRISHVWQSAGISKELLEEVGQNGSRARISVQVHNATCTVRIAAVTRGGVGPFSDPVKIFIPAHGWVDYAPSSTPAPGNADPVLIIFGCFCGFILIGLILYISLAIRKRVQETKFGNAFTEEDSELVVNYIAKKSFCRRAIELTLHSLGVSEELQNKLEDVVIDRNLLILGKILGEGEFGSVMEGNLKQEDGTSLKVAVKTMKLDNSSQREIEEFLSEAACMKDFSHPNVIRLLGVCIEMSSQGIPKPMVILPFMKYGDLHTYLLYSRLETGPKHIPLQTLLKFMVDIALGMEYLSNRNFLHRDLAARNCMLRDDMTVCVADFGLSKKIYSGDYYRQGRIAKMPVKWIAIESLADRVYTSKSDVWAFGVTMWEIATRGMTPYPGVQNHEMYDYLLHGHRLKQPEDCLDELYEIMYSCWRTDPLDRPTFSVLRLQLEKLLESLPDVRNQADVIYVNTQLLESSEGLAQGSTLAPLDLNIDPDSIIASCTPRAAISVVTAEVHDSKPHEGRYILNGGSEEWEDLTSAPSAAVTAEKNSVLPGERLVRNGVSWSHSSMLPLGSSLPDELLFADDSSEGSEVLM
# Experiment: as above
row,Sequence,phosphorylation enrichment
1,KQQEIYQEVTQ [CD209_Y239_L242V],4.06
2,YEPDAYYDLDQ [ELP5_Y302_D303Y],0.65
3,CPEASYNRSPI [PTAR1_Y42_R41S],0.585
4,FKTPIYPFLLP [PLD2_Y578_T577I_YF],1.57
5,EEQKKNYNAMK [SCN5A_Y1494_Y1494N],0.395
6,RYVVLYDAELT [ERCC4_Y581],1.98
7,FSLIHYARIVD [MYH7_Y582_G584R],0.418
8,MVSLFYGTALF [OR10C1_Y251],0.707
9,TRDVNYGWIIH [MT-CYB_Y75_R80H],1.98
10,FMMMRYSQNVR [SDAD1_Y656],0.493
11,REEKNDKLKET [BCLAF1_Y459_Y459D],0.657
12,FFPANYVAPMT [GRAP2_Y324_L319F],0.768
13,SDGHEYIYVDR [PDGFRB_Y579_P584R],0.514
14,LLREWYMIFSR [HUWE1_Y4066_I4069F],0.932
15,KHMADYPDCKF [SOX11_Y113_Y116C_YF],0.456
16,FLQEIHNSNNQ [FGG_Y140_Y140H_YF],0.443
17,WASGIYYVPKG [APBB1IP_Y340_R335W],11.5

row,Sequence,phosphorylation enrichment
1,NDFGNYNNQSS [HNRNPA1_Y318],0.285
2,FMIISYVLIIR [OR1D2_Y218_V214M],0.446
3,ISKILYHIIKG [CDH17_Y489_S484I],1.11
4,GLIPAYHRVIV [NMNAT1_Y64_M69V],0.437
5,SSGSRYQPLAS [NCAPD2_Y1325_T1321S],0.43
6,DRVALYIAREG [AACS_Y117],0.395
7,FTGSTYRVGDT [FN1_Y106_N104S_YF],0.551
8,EALDFYGEVRT [PTEN_Y155],0.37
9,RDWSHYFKIIE [KRT18_Y129],0.296
10,WQQQSYLDSRI [CTNNB1_Y30_G34R],0.515
11,HSDDDYDDPEL [CLNK_Y69],0.664
12,DFNPNYCFAGK [ALK_Y1096_YF],1.04
13,FKGIVYAVSSD [DCX_Y70],0.371
14,HKANEYFPVVL [ADAMTS18_Y764_YF],0.528
15,QGLRLYRAHLA [BTK_Y617_P619A],0.582
16,MYRVQYNSSVD [LRFN1_Y458_Q455R],0.375

# System: c-Abl (mouse)
# Experiment: as above
row,Sequence,phosphorylation enrichment
1,KQQEIYQEVTQ [CD209_Y239_L242V],1.94
2,YEPDAYYDLDQ [ELP5_Y302_D303Y],0.861
3,CPEASYNRSPI [PTAR1_Y42_R41S],0.781
4,FKTPIYPFLLP [PLD2_Y578_T577I_YF],0.747
5,EEQKKNYNAMK [SCN5A_Y1494_Y1494N],0.497
6,RYVVLYDAELT [ERCC4_Y581],0.817
7,FSLIHYARIVD [MYH7_Y582_G584R],0.762
8,MVSLFYGTALF [OR10C1_Y251],1.21
9,TRDVNYGWIIH [MT-CYB_Y75_R80H],0.908
10,FMMMRYSQNVR [SDAD1_Y656],0.701
11,REEKNDKLKET [BCLAF1_Y459_Y459D],0.596
12,FFPANYVAPMT [GRAP2_Y324_L319F],1.36
13,SDGHEYIYVDR [PDGFRB_Y579_P584R],0.513
14,LLREWYMIFSR [HUWE1_Y4066_I4069F],1.8
15,KHMADYPDCKF [SOX11_Y113_Y116C_YF],0.703
16,FLQEIHNSNNQ [FGG_Y140_Y140H_YF],0.808
17,WASGIYYVPKG [APBB1IP_Y340_R335W],31.1

row,Sequence,phosphorylation enrichment
1,NDFGNYNNQSS [HNRNPA1_Y318],0.874
2,FMIISYVLIIR [OR1D2_Y218_V214M],0.625
3,ISKILYHIIKG [CDH17_Y489_S484I],0.601
4,GLIPAYHRVIV [NMNAT1_Y64_M69V],0.622
5,SSGSRYQPLAS [NCAPD2_Y1325_T1321S],0.488
6,DRVALYIAREG [AACS_Y117],0.731
7,FTGSTYRVGDT [FN1_Y106_N104S_YF],0.448
8,EALDFYGEVRT [PTEN_Y155],0.825
9,RDWSHYFKIIE [KRT18_Y129],0.823
10,WQQQSYLDSRI [CTNNB1_Y30_G34R],0.482
11,HSDDDYDDPEL [CLNK_Y69],1.06
12,DFNPNYCFAGK [ALK_Y1096_YF],0.921
13,FKGIVYAVSSD [DCX_Y70],0.629
14,HKANEYFPVVL [ADAMTS18_Y764_YF],0.628
15,QGLRLYRAHLA [BTK_Y617_P619A],0.854
16,MYRVQYNSSVD [LRFN1_Y458_Q455R],0.629
